Measured values from patent US5580760, “FUSE binding protein and cDNA therefor” (The United States of America as represented by the …).

B1: FUSE (dsDNA)
DNA 1: GATCACAAAATAAAAAATCCCGAGGGAATATAG
DNA 2: CTATATTCCCTCGGGATTTTTTATTTTGTGATC

Assays:
[1] = target: FBP full length (CMV expression) (Homo sapiens) (UniProt Q96AE4); assay: cell_activity; details: CAT activation vs empty vector, U937 cells
[2] = target: GST-FBP 278-511 insertion mutant 1 (Homo sapiens, UniProt Q96AE4 SEQ:278-511, insertion RIR between GST and FBP); assay: EMSA; details: tags: N-terminal GST; C-terminal KEIEQKVQE; label: 5'-32P
[3] = target: GST-FBP 278-511 insertion mutant 2 (Homo sapiens, UniProt Q96AE4 SEQ:278-511, insertion IGSRIR after M297); assay: EMSA; details: tags: N-terminal GST; C-terminal KEIEQKVQE; label: 5'-32P
[4] = target: GST-FBP 278-511 insertion mutant 4 (Homo sapiens, UniProt Q96AE4 SEQ:278-511, Q333 replaced by PRIRE); assay: EMSA; details: tags: N-terminal GST; C-terminal KEIEQKVQE; label: 5'-32P
[5] = target: GST-FBP 278-511 insertion mutant 5 (Homo sapiens, UniProt Q96AE4 SEQ:278-511, insertion GIP after 336); assay: EMSA; details: tags: N-terminal GST; C-terminal KEIEQKVQE; label: 5'-32P
[6] = target: GST-FBP 278-511 insertion mutant 8 (Homo sapiens, UniProt Q96AE4 SEQ:278-511, insertion RDPA with deletion of QS after 404); assay: EMSA; details: tags: N-terminal GST; C-terminal KEIEQKVQE; label: 5'-32P
[7] = target: GST-FBP 278-511 insertion mutant 3 (Homo sapiens, UniProt Q96AE4 SEQ:278-511, insertion IRIR after M297); assay: EMSA; details: tags: N-terminal GST; C-terminal KEIEQKVQE; label: 5'-32P
GST-FBP 298-511 = GST-FBP 298-511 (Homo sapiens, UniProt Q96AE4 SEQ:298-511); assay: EMSA; details: tags: N-terminal GST; C-terminal KEIEQKVQE; label: 5'-32P
GST-FBP 278-474 = GST-FBP 278-474 (Homo sapiens, UniProt Q96AE4 SEQ:278-474); assay: EMSA; details: tags: N-terminal GST; label: 5'-32P
[8] = target: GST-FBP 278-511 insertion mutant 7 (Homo sapiens, UniProt Q96AE4 SEQ:278-511, insertion RIR after 373); assay: EMSA; details: tags: N-terminal GST; C-terminal KEIEQKVQE; label: 5'-32P
[9] = target: GST-FBP 278-511 insertion mutant 9 (Homo sapiens, UniProt Q96AE4 SEQ:278-511, insertion RGSG with deletion of P after 475); assay: EMSA; details: tags: N-terminal GST; C-terminal KEIEQKVQE; label: 5'-32P
GST-FBP 278-372 = GST-FBP 278-372 (Homo sapiens, UniProt Q96AE4 SEQ:278-372); assay: EMSA; details: tags: N-terminal GST; label: 5'-32P
GST-FBP 278-511 = GST-FBP 278-511 (Homo sapiens, UniProt Q96AE4 SEQ:278-511); assay: EMSA; same specificity as full length (FIG. 6C); details: tags: N-terminal GST (pGEX-1); C-terminal KEIEQKVQE; label: 5'-32P
GST alone = GST alone (UniProt P08515 P08515:1-218); assay: EMSA; GST control; details: tags: pGEX-2T without insert; label: 5'-32P
Method: Purified recombinant proteins were incubated with double stranded, ^32P labeled, oligonucleotide (Probe) in the presence or absence of the indicated quantity of unlabeled, double stranded oligonucleotide as competitor, and subjected to EMSA. (M. Fried and D. M. Crothers, *Nucleic Acids Res.* 9, 6505 (1981)).
DNA binding assays were performed with an equivalent amount of GST-FBP or GST alone incubated in 25 mM Tris, 200 mM Glycine, 1 mM EDTA, 0.5 mg/ml BSA, 0.1% Tween20, 10% glycerol, 100 µg/ml poly(dI:dC), and 0.2 ng of labeled probe. The probe was prepared by annealing two complementary synthetic oligonucleotides and 5' end labeling with T_4 polynucleotide kinase in the presence of γ-^32P-ATP. The top strand of the FUSE oligonucleotide was 5'-[…]-3'(SEQ ID NO: 11). The top strand of Mut A was 5'-GATCACAActacgtgctaggacgccGAATATAG-3' (SEQ ID NO: 12) (lower case indicates changes from FUSE oligomer sequence). The top strand of CRE was 5'-[…]-3' (SEQ ID NO: 13). The top strand of CTE was 5'-[…]-3' (SEQ ID NO: 14). Reaction mixtures were incubated 30 minutes at room temperature and protein-DNA complexes resolved by electrophoresis on a 4.2% acrylamide gel in 25 mM Tris, 200 mM Glycine, 1 mM EDTA buffer.

Molecule | activity [1] | binding result [2] | binding result [3] | binding result [4] | binding result [5] | binding result [6] | binding result [7] | binding result (GST-FBP 298-511) | binding result (GST-FBP 278-474) | binding result [8] | binding result [9] | binding result (GST-FBP 278-372) | binding result (GST-FBP 278-511) | binding result (GST alone)
myc-CAT reporter with FUSE | 5 fold |  |  |  |  |  |  |  |  |  |  |  |  | 
B1 |  | binds | no binding | no binding | no binding | no binding | no binding | no binding | binds | binds | binds | no binding | binds | no binding
